This assay concerns the target Bicaudal-D (D. melanogaster (endogenous in embryos)) (UniProt P16568). The assay is described as follows: co-IP.
Sequence of UniProt P16568 (P16568 whole entry): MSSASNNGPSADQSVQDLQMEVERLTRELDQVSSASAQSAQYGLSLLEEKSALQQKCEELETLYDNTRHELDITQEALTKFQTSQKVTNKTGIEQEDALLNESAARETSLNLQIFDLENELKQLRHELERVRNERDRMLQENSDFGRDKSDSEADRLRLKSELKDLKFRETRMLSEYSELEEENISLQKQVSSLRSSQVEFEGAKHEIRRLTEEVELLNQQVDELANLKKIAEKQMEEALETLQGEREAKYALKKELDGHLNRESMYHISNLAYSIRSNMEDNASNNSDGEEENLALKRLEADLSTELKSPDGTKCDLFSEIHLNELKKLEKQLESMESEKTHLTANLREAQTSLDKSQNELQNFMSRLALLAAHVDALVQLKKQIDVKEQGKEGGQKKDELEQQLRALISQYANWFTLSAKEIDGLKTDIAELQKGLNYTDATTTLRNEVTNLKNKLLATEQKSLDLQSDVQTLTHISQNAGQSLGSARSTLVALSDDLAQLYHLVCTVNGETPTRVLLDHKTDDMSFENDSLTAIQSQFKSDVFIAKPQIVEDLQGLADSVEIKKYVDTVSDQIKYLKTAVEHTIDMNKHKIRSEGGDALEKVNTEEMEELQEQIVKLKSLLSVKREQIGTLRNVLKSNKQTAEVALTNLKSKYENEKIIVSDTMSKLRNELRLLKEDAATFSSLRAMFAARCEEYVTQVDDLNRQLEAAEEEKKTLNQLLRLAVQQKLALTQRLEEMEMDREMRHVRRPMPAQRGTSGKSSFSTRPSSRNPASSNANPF

In turn, Imp (natural protein) displayed a reduction of the co-precipitate by RNase of 84%.

The values are drawn from doi:10.1101/2025.09.30.679481.
